Assay results as given in patent US20210355220A1 (TIKCRO TECHNOLOGIES, published 2021).

How the values were obtained:
hPD1 on HEK293 cells = target: T1, hPD1 on HEK293 cells (human, UniProt Q15116 25-288); assay: flow cytometry on transfected HEK293 cells
T1 construct: whole, on cells
Description: (§1) HEK293 cells were transfected with expression vectors of the following immune-related proteins: hBTLA, hICOS, hCD28, hPDL1, hPD1, hPDL2, and hCTLA-4. Over-expression of the proteins was verified using commercial antibodies against each target. […] Antibody binding to cells was then detected using flow cytometry. Cells that were incubated only with the secondary antibody were used as a background control. […] Note that “+” indicates binding above the background level and “-” indicate no binding as compared to the background level.

hPDL2 on HEK293 cells = target: T2, hPDL2 on HEK293 cells (human, UniProt Q9BQ51 20-273); assay: flow cytometry on transfected HEK293 cells
T2 construct: whole, on cells
T2 sequence (looked up): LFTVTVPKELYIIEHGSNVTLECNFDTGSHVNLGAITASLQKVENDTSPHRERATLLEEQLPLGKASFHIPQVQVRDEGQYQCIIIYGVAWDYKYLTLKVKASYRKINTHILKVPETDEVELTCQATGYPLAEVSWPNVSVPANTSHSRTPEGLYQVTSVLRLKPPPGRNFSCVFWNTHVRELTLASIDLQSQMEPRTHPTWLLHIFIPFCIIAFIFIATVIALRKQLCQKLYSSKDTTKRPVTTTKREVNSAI
Description: as §1

hCD28 on HEK293 cells = target: T3, hCD28 on HEK293 cells (human, UniProt P10747 19-220); assay: flow cytometry on transfected HEK293 cells
T3 construct: whole, on cells
Description: as §1

hBTLA on HEK293 cells = target: T4, hBTLA on HEK293 cells (human, UniProt Q7Z6A9 31-289); assay: flow cytometry on transfected HEK293 cells
T4 construct: whole, on cells
Description: as §1

hICOS on HEK293 cells = target: T5, hICOS on HEK293 cells (human, UniProt Q9Y6W8 21-199); assay: flow cytometry on transfected HEK293 cells
T5 construct: whole, on cells
T5 sequence (looked up): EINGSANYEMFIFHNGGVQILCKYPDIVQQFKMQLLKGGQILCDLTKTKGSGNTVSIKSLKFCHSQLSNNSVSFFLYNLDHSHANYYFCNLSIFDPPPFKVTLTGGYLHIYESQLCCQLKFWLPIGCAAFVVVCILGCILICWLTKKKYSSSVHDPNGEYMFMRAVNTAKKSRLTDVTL
Description: as §1

hPDL1 on HEK293 cells = target: T6, hPDL1 on HEK293 cells (human, UniProt Q9NZQ7 19-290); assay: flow cytometry on transfected HEK293 cells
T6 construct: whole, on cells
T6 sequence (Q9NZQ7 19-290): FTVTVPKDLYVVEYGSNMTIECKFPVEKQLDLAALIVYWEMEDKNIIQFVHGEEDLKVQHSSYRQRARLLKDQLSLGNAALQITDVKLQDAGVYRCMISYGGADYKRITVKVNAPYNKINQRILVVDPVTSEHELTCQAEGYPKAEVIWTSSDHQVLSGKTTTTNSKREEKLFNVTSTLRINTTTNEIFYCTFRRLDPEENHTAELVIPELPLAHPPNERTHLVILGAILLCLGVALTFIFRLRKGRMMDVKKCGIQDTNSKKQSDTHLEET
Description: as §1

[1] = target: T7, Pig (Sus scrofa) CTLA-4 on HEK293 cells (Sus scrofa, UniProt Q9MYX7 36-223); assay: flow cytometry on HEK293 cells transiently expressing pig CTLA-4
T7 construct: whole, on cells; also called pig CTLA-4
T7 sequence (Q9MYX7 36-223): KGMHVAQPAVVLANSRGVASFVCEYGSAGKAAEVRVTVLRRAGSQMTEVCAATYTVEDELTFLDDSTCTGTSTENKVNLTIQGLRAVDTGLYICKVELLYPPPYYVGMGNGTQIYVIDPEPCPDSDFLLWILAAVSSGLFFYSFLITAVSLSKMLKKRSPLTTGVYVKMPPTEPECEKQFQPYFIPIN
Description: Macaque (Macaca fascicularis), pig (Sus scrofa) and mouse (Mus musculus) CTLA-4 proteins were transiently expressed on the surface of HEK293 cells. […] Binding was measured using FACS and analyzed.

[2] = target: T8, Recombinant human CTLA-4-his (Sino Biologicals, 11159-H08H) (human, UniProt P16410 36-162); assay: SPR (Biacore T100), antibody captured on anti-human chip, CTLA-4-his in solution
T8 construct: Bought protein; also called dimer hCTLA-4; not shown: his tag
T8 sequence (P16410 36-162 limits assumed): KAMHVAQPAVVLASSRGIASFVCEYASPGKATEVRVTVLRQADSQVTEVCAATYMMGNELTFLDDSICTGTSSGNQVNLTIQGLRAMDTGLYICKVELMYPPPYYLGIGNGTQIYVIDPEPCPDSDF
Description: Recombinant human CTLA-4-his (Sino Biologicals, 11159-H08H) was added in a serial 2-fold dilution, starting at a concentration of 500nM. […] The measurement was corrected using the baseline channel and the protein-antibody interaction was measured by the change in surface resonance and quantified with Biacore T100 control software (version 2.0.4).

T1 sequence (Q15116 25-288): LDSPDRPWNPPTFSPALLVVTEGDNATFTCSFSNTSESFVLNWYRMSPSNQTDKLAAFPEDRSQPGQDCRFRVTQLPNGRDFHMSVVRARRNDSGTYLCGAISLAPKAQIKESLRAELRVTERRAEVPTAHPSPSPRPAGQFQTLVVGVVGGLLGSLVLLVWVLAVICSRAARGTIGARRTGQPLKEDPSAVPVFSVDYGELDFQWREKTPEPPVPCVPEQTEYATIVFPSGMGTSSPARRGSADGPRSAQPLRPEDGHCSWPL

B1: Ipilimumab (antibody, V domains shown)
VH: QVQLVESGGGVVQPGRSLRLSCAASGFTFSSYTMHWVRQAPGKGLEWVTFISYDGNNKYYADSVKGRFTISRDNSKNTLYLQMNSLRAEDTAIYYCARTGWLGPFDYWGQGTLVTVSS
VL: not shown
Binder B1 has an MFI (hPD1 on HEK293 cells) of 77 MFI, an MFI (hPDL2 on HEK293 cells) of 73 MFI and an MFI (hCD28 on HEK293 cells) of 67 MFI. For the same binder, the MFI (hBTLA on HEK293 cells) was 67 MFI, the MFI (hICOS on HEK293 cells) was 67 MFI and the MFI (hPDL1 on HEK293 cells) was 70 MFI. For the same binder, the EC50 [1] was 671 nM.

B2: Ab47h (antibody, V domains shown)
VH: QVQLVESGGGVVQPGRSLRLSCAASGFTFSNYGIHWVRQAPGKGLEWVAAIWYDGNNKYYADSVKDRFTISRDNSKNTLYLQMNSLRVEDTAVYYCARNGVLGAFDIWGQGTMVTVSS
VL: DIQMTQSPSSLSASVGDRVTITCRASQGISNYLAWYQQKPGKVPKLLIYAASTLQSGVPSRFSGSGSGTDFTLTISSLQPEDVATYYCQKYNSSPWTFGQGTKVEIK
B2 was tested, and the Kd [2] was 10 nM.
